Results published in patent US20190153059A1 (ADEPTHERA, published 2019).
Square brackets hold non-standard residues; d marks the D form. Ends that are not written are not given here. * marks the point of attachment. Palmitoyl = CCCCCCCCCCCCCCCC(=O)*; AEEA = NCCOCCOCC(=O)O

What was measured:
CLR/RAMP1 receptor = CLR/RAMP1 receptor (UniProt Q16602 23-461; O60894 27-148, limits assumed); experiment: cell-based or functional assay
CLR/RAMP2 receptor = CLR/RAMP2 receptor (UniProt Q16602 23-461; O60895 43-175, limits assumed); experiment: cell-based or functional assay
CLR/RAMP2 receptor, sequence (Q16602 23-461 limits assumed, chain 1 of 2): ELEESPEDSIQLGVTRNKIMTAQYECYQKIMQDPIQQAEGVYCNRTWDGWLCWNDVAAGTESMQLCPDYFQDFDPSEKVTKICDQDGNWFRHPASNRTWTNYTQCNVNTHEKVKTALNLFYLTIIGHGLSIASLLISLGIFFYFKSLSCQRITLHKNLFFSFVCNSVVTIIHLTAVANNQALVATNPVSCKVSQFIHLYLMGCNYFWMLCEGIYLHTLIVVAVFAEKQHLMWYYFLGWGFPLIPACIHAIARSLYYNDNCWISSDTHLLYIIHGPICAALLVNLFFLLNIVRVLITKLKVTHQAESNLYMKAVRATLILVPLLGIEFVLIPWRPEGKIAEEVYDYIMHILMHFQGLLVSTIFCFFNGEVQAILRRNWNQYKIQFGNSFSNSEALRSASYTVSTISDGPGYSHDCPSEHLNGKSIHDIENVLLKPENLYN
CLR/RAMP2 receptor, sequence (O60895 43-175 limits assumed, chain 2 of 2): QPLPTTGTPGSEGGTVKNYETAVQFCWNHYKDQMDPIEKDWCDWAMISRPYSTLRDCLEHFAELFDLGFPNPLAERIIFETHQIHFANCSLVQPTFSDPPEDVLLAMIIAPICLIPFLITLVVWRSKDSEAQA

CLR/RAMP1 receptor, sequence (Q16602 23-461 limits assumed, chain 1 of 2): as the sequence (Q16602 23-461 limits assumed, chain 1 of 2) above
CLR/RAMP1 receptor, sequence (O60894 27-148 limits assumed, chain 2 of 2): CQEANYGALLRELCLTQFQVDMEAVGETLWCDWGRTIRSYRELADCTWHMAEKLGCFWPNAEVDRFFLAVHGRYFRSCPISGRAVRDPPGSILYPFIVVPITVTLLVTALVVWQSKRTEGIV

Binder	CLR/RAMP1 EC50 (CLR/RAMP1 receptor)	CLR/RAMP1 Max Activity (CLR/RAMP1 receptor)	CLR/RAMP2 EC50 (CLR/RAMP2 receptor)	CLR/RAMP2 Max Activity (CLR/RAMP2 receptor)
KGCRFGTCTVQKLAHQIYQFTDKDKDNVAPRSKISPQGY (Ace-PEG3- at N-terminus; K(Hexadecanoyl-isoGlu); -NH2) [SEQ ID NO: 151]	0.5 nM	–	–	–
KGCRFGTCTVQKLAHQIYQFTDKDKDNVAPRSKISPQGY (Ace-PEG3- at N-terminus; K([19-carboxy-nonadecanoyl]-isoGlu); -NH2) [SEQ ID NO: 155]	0.6 nM	–	–	–
[AEEA]K(Palmitoyl)GCRFGTCTVQKLAHQIYQFTDKDKDSAPVDPSSPHSY-NH2 (ends and bridges not checked) [SEQ ID NO: 46]	–	–	0.5 nM	104 % of positive control
[AEEA]K(Palmitoyl)GCRFGTCTVQKLAHLWQLMGPAGRQDSAPVDPSSPHSY-NH2 (not fully specified; ends and bridges not checked) [SEQ ID NO: 62]	–	2 % of positive control	–	–
TKKTLRTGCRFGTCTVQKLAHQIYQFTDKDKDNVAPVDPSSPHSY (miniPEG- at N-terminus; K(Pal) at position 2 (miniPEG-TK(Pal)K...); -NH2) [SEQ ID NO: 42]	–	–	0.2 nM	–
KGCRFGTCTVQKLAHQIYQFTDKDVAPRSKISPQGY (miniPEG- at N-terminus; K(PAL); (D-Gln) in ...KISP(D-Gln)GY; -NH2) [SEQ ID NO: 214]	–	–	0.4 nM	99 % of positive control
Ac-KGCRFGTCTVQKLAHQIYQFTDKDKDNSAPVDPSSPHSY-NH2 (ends and bridges not checked) [SEQ ID NO: 59]	31 nM	–	18 nM	–
Palmitoyl-KGCRFGTCTVQKLAHQIYQFTDKDKDNVAPRSKSSPHSY-NH2 (ends and bridges not checked) [SEQ ID NO: 63]	180 nM	–	7 nM	–
Ac-VGCRFGTCTVQKLAHQIYQFTDKDKDNSAPVDPSSPHSY-NH2 (ends and bridges not checked) [SEQ ID NO: 56]	224 nM	–	17 nM	–
Ac-KGCRFGTCTVQKLAHQIYQFTDKDKDNVAPVDPSSPHSY-NH2 (ends and bridges not checked) [SEQ ID NO: 60]	16 nM	–	3 nM	–
Ac-VGCRFGTCTVQKLAHQIYQFTPAGRQDSAPVDPSSPHSY-NH2 (ends and bridges not checked) [SEQ ID NO: 57]	909 nM	–	149 nM	–

Second part, the binder after the results:

CLR/RAMP1 EC50 (CLR/RAMP1 receptor)	CLR/RAMP1 Max Activity (CLR/RAMP1 receptor)	CLR/RAMP2 EC50 (CLR/RAMP2 receptor)	CLR/RAMP2 Max Activity (CLR/RAMP2 receptor)	Binder
0.8 nM	88 % of positive control	–	–	KGCRFGTCTVQKLAHQIYQFTDKDKDNVAPRSKISPQGY (Ace-PEG3- at N-terminus; K([19-carboxy-nonadecanoyl]-PEG3-isoGlu); -NH2) [SEQ ID NO: 156]
0.4 nM	–	0.6 nM	–	Palmitoyl-KGCRFGTCTVQKLAHQIYQFTDKDKDNSAPVDPSSPHSY-NH2 (cysteine pairing not given here) [SEQ ID NO: 30]
–	–	0.7 nM	107 % of positive control	KGCRFGTCTVQKLAHQIYQFTDKDVAPRSKISPQGY (miniPEG- at N-terminus; K(PAL); (D-Ser) in ...VAPR(D-Ser)KISPQGY; -NH2) [SEQ ID NO: 213]
–	69 % of positive control	–	102 % of positive control	Ac-FGCRFGTCTVQKLAHQIYQFTDKDKDNVAPRSKISPQGY-NH2 (ends and bridges not checked) [SEQ ID NO: 53 (human ADM)]
–	–	0.4 nM	64 % of positive control	KGCRFGTCTVQKLAHQIYQFTDKDKSAPVDPSSPHSY (miniPEG- at N-terminus; K(PAL); -NH2) [SEQ ID NO: 47]
0.2 nM	65 % of positive control	0.3 nM	–	[AEEA]K(Palmitoyl)GCRFGTCTVQKLAHQIYQFTDKDKQDSAPVDPSSPHSY-NH2 (ends and bridges not checked) [SEQ ID NO: 51]
